# B1: FLAG-tagged CDIN1 (F-CDIN1) (natural protein, UniProt Q9Y2V0 1-281, looked up)
# chain: MILTKAQYDEIAQCLVSVPPTRQSLRKLKQRFPSQSQATLLSIFSQEYQKHIKRTHAKHHTSEAIESYYQRYLNGVVKNGAAPVLLDLANEVDYAPSLMARLILERFLQEHEETPPSKSIINSMLRDPSQIPDGVLANQVYQCIVNDCCYGPLVDCIKHAIGHEHEVLLRDLLLEKNLSFLDEDQLRAKGYDKTPDFILQVPVAVEGHIIHWIESKASFGDECSHHAYLHDQFWSYWNRFGPGLVIYWYGFIQELDCNRERGILLKACFPTNIVTLCHSIA
# notes: C15orf41); cDNA synthesized by IDT; source: Expi293, transiently transfected, in lysate and purified in complexes (anti-FLAG, Strep-Tactin); not shown: 3xFLAG, N-terminal, kept
# B2: Strep-tagged CDAN1 (ST-CDAN1), wildtype (natural protein, human)
# chain: MAAVLESLLREEVSVAAVVRWIARSTQGSEDNAGEAAALSSLRALRKEFVPFLLNFLREQSSRVLPQGPPTPAKTPGASAALPGRPGGPPRGSRGARSQLFPPTEAQSTAAEAPLARRGGRRRGPGPARERGGRGLEEGVSGESLPGAGGRRLRGSGSPSRPSLTLSDPPNLSNLEEFPPVGSVPPGPTGTKPSRRINPTPVSEERSLSKPKTCFTSPPISCVPSSQPSALDTSPWGLGLPPGCRSLQEEREMLRKERSKQLQQSPTPTCPTPELGSPLPSRTGSLTDEPADPARVSSRQRLELVALVYSSCIAENLVPNLFLELFFVFQLLTARRMVTAKDSDPELSPAVLDSLESPLFQSIHDCVFFAVQVLECHFQVLSNLDKGTLKLLAENERLLCFSPALQGRLRAAYEGSVAKVSLVMPPSTQAVSFQPETDNRANFSSDRAFHTFKKQRDVFYEVLREWEDHHEEPGWDFEKGLGSRIRAMMGQLSAACSHSHFVRLFQKQLLQMCQSPGGAGGTVLGEAPDVLSMLGADKLGRLWRLQERLMAPQSSGGPCPPPTFPGCQGFFRDFILSASSFQFNQHLMDSLSLKIQELNGLALPQHEPNDEDGESDVDWQGERKQFAVVLLSLRLLAKFLGFVAFLPYRGPEPPPTGELQDSILALRSQVPPVLDVRTLLQRGLQARRAVLTVPWLVEFLSFADHVVPLLEYYRDIFTLLLRLHRSLVLSQESEGKMCFLNKLLLLAVLGWLFQIPTVPEDLFFLEEGPSYAFEVDTVAPEHGLDNAPVVDQQLLYTCCPYIGELRKLLASWVSGSSGRSGGFMRKITPTTTTSLGAQPSQTSQGLQAQLAQAFFHNQPPSLRRTVEFVAERIGSNCVKHIKATLVADLVRQAESLLQEQLVTQGEEGGDPAQLLEILCSQLCPHGAQALALGREFCQRKSPGAVRALLPEETPAAVLSSAENIAVGLATEKACAWLSANITALIRREVKAAVSRTLRAQGPEPAARGERRGCSRACEHHAPLPSHLISEIKDVLSLAVGPRDPDEGVSPEHLEQLLGQLGQTLRCRQFLCPPAEQHLAKCSVELASLLVADQIPILGPPAQYRLERGQARRLLHMLLSLWKEDFQGPVPLQLLLSPRNVGLLADTRPREWDLLLFLLRELVEKGLMGRMEIEACLGSLHQAQWPGDFAEELATLSNLFLAEPHLPEPQLRACELVQPNRGTVLAQS
# notes: Codanin-1 (CDAN1), human, 1227 residues; cDNA from Horizon Discovery/Dharmacon, its point mutation S421F corrected; same construct used in Expi293 and in Flp-In 293 T-REx cells; dimer by SEC-MALS and cryo-EM; also called Strep-CDAN1; WT CDAN1; source: Expi293, transiently transfected, in lysate and purified in complexes (anti-FLAG, Strep-Tactin); Flp-In 293 T-REx, transiently transfected, in …
# Key:
# [1] = molecular target: B2; test: SEC-MALS; 200 µg of each purified complex at 5 µM on SRT SEC-300 column, PBS pH 7.4 with 1 mM DTT; DAWN HELEOS II; dn/dc 0.185; details: both partners purified
# [2] = molecular target: the molecule itself; test: cryo-EM structure; tandem-purified C:C:A complex cross-linked with 250 µM BS3, 1 mg/mL; single-particle cryo-EM, 3.0 to 3.5 Å
# [3] = molecular target: the molecule itself; test: SEC-MALS; 200 µg of each purified complex at 5 µM on SRT SEC-300 column, PBS pH 7.4 with 1 mM DTT; DAWN HELEOS II; dn/dc 0.185
# [4] = molecular target: B1; test: cryo-EM structure; purified ST-CDAN1C:F-CDIN1 (C:C) complex, cross-linked with BS3, 0.78 mg/mL; ~6 Å reconstruction, no model built; details: both partners purified
binder,measurement,setting,value
B1,stoichiometry N,[1],2 CDIN1 per two CDAN1
B2,stoichiometry N,[2],2
same,stoichiometry N,[3],2 CDAN1 per complex
"Strep-CDAN1C (CDAN1 MA3 domain, residues 1008-1227) (domain or fragment, human, UniProt Q8IWY9 1008-1227, looked up, also called ST-CDAN1C; CDAN1 C-term; source: Expi293, transiently transfected, purified in complex with F-CDIN1 (anti-FLAG, Strep-Tactin); not shown: 3xStrep-II-TEV, N-terminal, kept) GERRGCSRACEHHAPLPSHLISEIKDVLSLAVGPRDPDEGVSPEHLEQLLGQLGQTLRCRQFLCPPAEQHLAKCSVELASLLVADQIPILGPPAQYRLERGQARRLLHMLLSLWKEDFQGPVPLQLLLSPRNVGLLADTRPREWDLLLFLLRELVEKGLMGRMEIEACLGSLHQAQWPGDFAEELATLSNLFLAEPHLPEPQLRACELVQPNRGTVLAQS",binding result,[4],binds

# Source: publication PMC11911400, “Mechanism of ASF1 engagement by CDAN1” (Nature Communications, 2025)
